Assay results as given in US20120077957A1 (PALATIN TECHNOLOGIES, published 2012).
Read-outs that look alike come from different tables or passages of the source. Numbered stars: 1 amine (or outer) side, 2 acyl side, 3 side chain; on linkers, the order of the positions; unused ones are H or OH. Bridge positions count the residues as written; N and C are the ends. Square brackets hold non-standard residues; d marks the D form. * marks the point of attachment. Pro(trans-4-NH2) = O=C([C@@H]1C[C@@H](N[*:3])CN1[*:1])[*:2]; Met(O2) = CS(=O)(=O)CC[C@H](N)C(=O)O; Hyp = O=C(O)[C@@H]1C[C@@H](O)CN1; Cit = NC(=O)NCCC[C@H](N)C(=O)O; Orn = NCCC[C@H](N)C(=O)O; Dab = NCC[C@H](N)C(=O)O; NHcPr = C1CC1N*

Columns and labels:
[1] = target: T1, human melanocortin-4 receptor (recombinant hMC4-R) (human, UniProt P32245 1-332); test: cell-based or functional assay
[2] = target: T1, human melanocortin-4 receptor …; test: competition with labelled NDP-α-MSH ([I125] or Eu), hMC4-R HEK-293 membranes
Protocol: After incubation for 60 minutes at 37° C., the assay mixture was filtered and the membranes washed three times with ice-cold buffer. Filters were dried and counted in a gamma counter for bound radioactivity. […] Maximal specific binding (100%) was defined as the difference in radioactivity (cpm) bound to cell membranes in the absence and presence of 1 μM NDP-α-MSH. […] Ki values for test peptides of the present invention were determined using Graph-Pad Prism® curve-fitting software.
After incubation for 90 minutes at 37° C., the reaction was stopped by filtration over AcroWell 96-well filter plates (Pall Life Sciences). The filter plates were washed 4 times with 200 μL of ice-cold phosphate-buffered saline. DELFIA Enhancement solution (PerkinElmer Life Sciences) was added to each well. The plates were incubated on a shaker for 15 minutes and read at 340 nm excitation and 615 nm emission wavelengths. Each assay was conducted in duplicate and mean values were utilized. Ki values were determined by curve-fitting with Graph-Pad Prism® software using a one-site fixed-slope competition binding model.

[3] = target: T1, human melanocortin-4 receptor …; test: cell-based or functional assay; remark: listed apart in the source

T1 sequence (P32245 whole entry): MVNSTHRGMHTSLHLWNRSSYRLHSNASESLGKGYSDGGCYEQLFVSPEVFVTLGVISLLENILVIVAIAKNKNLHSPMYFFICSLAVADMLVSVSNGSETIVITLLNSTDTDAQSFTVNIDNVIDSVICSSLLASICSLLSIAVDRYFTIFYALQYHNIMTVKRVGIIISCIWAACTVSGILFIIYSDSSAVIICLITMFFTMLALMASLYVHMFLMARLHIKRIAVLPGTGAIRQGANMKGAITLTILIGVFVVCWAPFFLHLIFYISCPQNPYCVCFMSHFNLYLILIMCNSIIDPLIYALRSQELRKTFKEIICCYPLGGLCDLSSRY

Binder	Ec50 (nM), cAMP [1]	Emax (%), cAMP [1]	Ki [2]	Ec50 (nM), cAMP [3]	Emax (%), cAMP [3]
XEHFRWX (N-terminal acetyl; Nle at 1; D-Phe at 4; Orn at 7; side-chain lactam Glu2-Orn7; C-terminal -OH) [Peptide No. 1: Ac-Nle-cyclo(Glu-His-D-Phe-Arg-Trp-Orn)-OH]	0.5 nM	97%	–	–	–
Ac-REQ[dF]RW[Orn]-OH (lactam 2-7) [Peptide No. 11: Ac-Arg-cyclo(Glu-Gln-D-Phe-Arg-Trp-Orn)-OH]	–	81%	–	–	–
Ac-RE[Met(O2)][dF]RW[Orn]-NH2 (lactam 2-7) [Peptide No. 13: Ac-Arg-cyclo(Glu-Met(O2)-D-Phe-Arg-Trp-Orn)-NH2]	5 nM	71%	–	–	–
Ac-REK[dF]RW[Orn]-NH2 (lactam 2-7) [Peptide No. 16: Ac-Arg-cyclo(Glu-Lys-D-Phe-Arg-Trp-Orn)-NH2]	–	104%	15 nM	–	–
Ac-RE[Hyp][dF]RW[Orn]-NH2 (lactam 2-7) [Peptide No. 14: Ac-Arg-cyclo(Glu-Hyp-D-Phe-Arg-Trp-Orn)-NH2]	–	104%	–	–	–
Ac-REH[dF]RW[Orn]-NH2 (lactam 2-7) [Peptide No. 4: Ac-Arg-cyclo(Glu-His-D-Phe-Arg-Trp-Orn)-NH2]	0.2 nM	83%	1 nM	–	–
Ac-REH[dF]RW[Orn]-OH (lactam 2-7) [Peptide No. 3: Ac-Arg-cyclo(Glu-His-D-Phe-Arg-Trp-Orn)-OH]	0.7 nM	83%	24 nM	–	–
Ac-RER[dF]RW[Orn]-NH2 (lactam 2-7) [Peptide No. 10: Ac-Arg-cyclo(Glu-Arg-D-Phe-Arg-Trp-Orn)-NH2]	–	98%	–	–	–
Ac-RER[dF]RW[Orn]-OH (lactam 2-7) [Peptide No. 9: Ac-Arg-cyclo(Glu-Arg-D-Phe-Arg-Trp-Orn)-OH]	–	82%	–	–	–
Ac-RE[Cit][dF]RW[Orn]-NH2 (lactam 2-7) [Peptide No. 15: Ac-Arg-cyclo(Glu-Cit-D-Phe-Arg-Trp-Orn)-NH2]	–	87%	–	–	–
XEHFRWX (N-terminal acetyl; Nle at 1; D-Phe at 4; Orn at 7; side-chain lactam Glu2-Orn7; C-terminal amide (-NH2)) [Peptide No. 2: Ac-Nle-cyclo(Glu-His-D-Phe-Arg-Trp-Orn)-NH2]	0.1 nM	93%	0.1 nM	–	–
RDXFRWK (N-terminal acetyl; Cit (citrulline) at 3; D-Phe at 4; side-chain lactam Asp2-Lys7; C-terminal amide (-NH2)) [Asp...Lys analog of peptide No. 15: Ac-Arg-cyclo(Asp-Cit-D-Phe-Arg-Trp-Lys)-NH2]	–	69%	–	–	–
Ac-REQ[dF]RW[Orn]-NHcPr (lactam 2-7) [Peptide No. 19: Ac-Arg-cyclo(Glu-Gln-D-Phe-Arg-Trp-Orn)-NH-cycProp]	–	91%	–	–	–
Ac-RD[Orn][dF]RWK-NH2 (lactam 2-7) [Asp...Lys analog of peptide No. 8: Ac-Arg-cyclo(Asp-Orn-D-Phe-Arg-Trp-Lys)-NH2]	0.8 nM	79%	–	–	–
Ac-RD[Dab][dF]RWK-OH (lactam 2-7) [Asp...Lys analog of peptides No. 5 and No. 42: Ac-Arg-cyclo(Asp-Dab-D-Phe-Arg-Trp-Lys)-OH]	4 nM	91%	–	4 nM	91%
Ac-RE[Dab][dF]RW[Orn]-OH (lactam 2-7) [Peptide No. 5: Ac-Arg-cyclo(Glu-Dab-D-Phe-Arg-Trp-Orn)-OH]	–	94%	–	–	–
Ac-[dR]DH[dF]RWK-NH2 (lactam 2-7) [Asp...Lys analog of peptide No. 39: Ac-D-Arg-cyclo(Asp-His-D-Phe-Arg-Trp-Lys)-NH2]	–	–	–	–	89%
Ac-RD[Orn](Ac)[dF]RWK-NH2 (lactam 2-7) [Asp...Lys analog of peptide No. 33: Ac-Arg-cyclo(Asp-Orn(Acetyl)-D-Phe-Arg-Trp-Lys)-NH2]	532 nM	62%	–	–	–
Ac-RD[Dab](Ac)[dF]RWK-NH2 (lactam 2-7; SMILES CC(=O)NCC[C@@H]1NC(=O)[C@@H](NC(=O)[C@H](CCCNC(=N)N)NC(C)=O)CC(=O)NCCCC[C@@H](C(N)=O)NC(=O)[C@H](Cc2c[nH]c3ccccc23)NC(=O)[C@H](CCCNC(=N)N)NC(=O)[C@@H](Cc2ccccc2)NC1=O) [Asp...Lys analog of peptide No. 18: Ac-Arg-cyclo(Asp-Dab(Acetyl)-D-Phe-Arg-Trp-Lys)-NH2]	–	69%	–	–	–
Ac-RD[Orn][dF]RWK-OH (lactam 2-7) [Asp...Lys analog of peptide No. 7: Ac-Arg-cyclo(Asp-Orn-D-Phe-Arg-Trp-Lys)-OH]	12 nM	84%	–	–	–

Binder	Ec50 (nM), cAMP [1]	Emax (%), cAMP [1]	Ki [2]	Ec50 (nM), cAMP [3]	Emax (%), cAMP [3]
Ac-[dR][Orn]Q[dF]RWE-NH2 (lactam 2-7) [Peptide No. 45: Ac-D-Arg-cyclo(Orn-Gln-D-Phe-Arg-Trp-Glu)-NH2]	–	–	–	–	89%
Ac-RE[Dab](Ac)[dF]RW[Orn]-NH2 (lactam 2-7) [Peptide No. 18: Ac-Arg-cyclo(Glu-Dab(Acetyl)-D-Phe-Arg-Trp-Orn)-NH2]	–	75%	–	–	–
Ac-REQ[dF]RW[Orn]-NH2 (lactam 2-7) [Peptide No. 12: Ac-Arg-cyclo(Glu-Gln-D-Phe-Arg-Trp-Orn)-NH2]	–	96%	–	–	–
Ac-R[Orn][Dab][dF]RWE-OH (lactam 2-7) [Peptide No. 42: Ac-Arg-cyclo(Orn-Dab-D-Phe-Arg-Trp-Glu)-OH]	–	–	–	–	100%
Ac-RDH[dF]RWK-NH2 (lactam 2-7) [Asp...Lys analog of peptides No. 4 and No. 38: Ac-Arg-cyclo(Asp-His-D-Phe-Arg-Trp-Lys)-NH2]	–	83%	–	–	83%
Ac-RDH[dF]RWK-OH (lactam 2-7) [Asp...Lys analog of peptides No. 3 and No. 37: Ac-Arg-cyclo(Asp-His-D-Phe-Arg-Trp-Lys)-OH]	–	91%	–	–	91%
Ac-RDQ[dF]RWK-NHcPr (lactam 2-7, also called Peptide Structure (Asp...Lys) in the row of No. 19) [Asp...Lys analog of peptide No. 19: Ac-Arg-cyclo(Asp-Gln-D-Phe-Arg-Trp-Lys)-NH-cycProp]	9 nM	79%	64 nM	–	–
Ac-RDN[dF]RWK-OH (lactam 2-7, also called Peptide Structure (Asp...Lys) in the row of No. 20) [Asp...Lys analog of peptide No. 20: Ac-Arg-cyclo(Asp-Asn-D-Phe-Arg-Trp-Lys)-OH]	81 nM	73%	100 nM	–	–
Ac-RDR[dF]RWK-OH (lactam 2-7) [Asp...Lys analog of peptide No. 9: Ac-Arg-cyclo(Asp-Arg-D-Phe-Arg-Trp-Lys)-OH]	–	75%	–	–	–
Ac-RD[Hyp][dF]RWK-NH2 (lactam 2-7, also called Peptide Structure (Asp...Lys) in the row of No. 14) [Asp...Lys analog of peptide No. 14: Ac-Arg-cyclo(Asp-Hyp-D-Phe-Arg-Trp-Lys)-NH2]	27 nM	39%	4 nM	–	–
Ac-RDK[dF]RWK-NH2 (lactam 2-7, also called Peptide Structure (Asp...Lys) in the row of No. 16) [Asp...Lys analog of peptide No. 16: Ac-Arg-cyclo(Asp-Lys-D-Phe-Arg-Trp-Lys)-NH2]	–	97%	30 nM	–	–
Ac-RDR[dF]RWK-NH2 (lactam 2-7) [Asp...Lys analog of peptide No. 10: Ac-Arg-cyclo(Asp-Arg-D-Phe-Arg-Trp-Lys)-NH2]	–	68%	–	–	–
Ac-RD[Met(O2)][dF]RWK-NH2 (lactam 2-7, also called Peptide Structure (Asp...Lys) in the row of No. 13) [Asp...Lys analog of peptide No. 13: Ac-Arg-cyclo(Asp-Met(O2)-D-Phe-Arg-Trp-Lys)-NH2]	35 nM	29%	7 nM	–	–
Ac-RDQ[dF]RWK-NH2 (lactam 2-7) [Asp...Lys analog of peptides No. 12 and No. 44: Ac-Arg-cyclo(Asp-Gln-D-Phe-Arg-Trp-Lys)-NH2]	17 nM	85%	–	17 nM	85%
Ac-RD[Pro(trans-4-NH2)][dF]RWK-NH2 (lactam 2-7, also called Peptide Structure (Asp...Lys) in the row of No. 32) [Asp...Lys analog of peptide No. 32: Ac-Arg-cyclo(Asp-Pro(4R-NH2)-D-Phe-Arg-Trp-Lys)-NH2]	–	61%	5 nM	–	–
Ac-RDQ[dF]RWK-OH (lactam 2-7, also called Peptide Structure (Asp...Lys) in the row of No. 11) [Asp...Lys analog of peptide No. 11: Ac-Arg-cyclo(Asp-Gln-D-Phe-Arg-Trp-Lys)-OH]	19 nM	80%	115 nM	–	–
Ac-RE[Orn][dF]RW[Orn]-OH (lactam 2-7) [Peptide No. 7: Ac-Arg-cyclo(Glu-Orn-D-Phe-Arg-Trp-Orn)-OH]	–	92%	–	–	–
Ac-DQ[dF]RWK-NH2 (lactam 1-6; SMILES CC(=O)N[C@H]1CC(=O)NCCCC[C@@H](C(N)=O)NC(=O)[C@H](Cc2c[nH]c3ccccc23)NC(=O)[C@H](CCCNC(=N)N)NC(=O)[C@@H](Cc2ccccc2)NC(=O)[C@H](CCC(N)=O)NC1=O, also called Peptide Structure (Asp...Lys) in the row of No. 21) [Asp...Lys analog of peptide No. 21: Ac-cyclo(Asp-Gln-D-Phe-Arg-Trp-Lys)-NH2]	148 nM	35%	99 nM	–	–
Ac-RE[Dab][dF]RW[Orn]-NH2 (lactam 2-7) [Peptide No. 6: Ac-Arg-cyclo(Glu-Dab-D-Phe-Arg-Trp-Orn)-NH2]	0.3 nM	94%	–	–	–
Ac-RD[Dab][dF]RWK-NH2 (lactam 2-7) [Asp...Lys analog of peptides No. 6 and No. 43: Ac-Arg-cyclo(Asp-Dab-D-Phe-Arg-Trp-Lys)-NH2]	0.3 nM	91%	–	0.3 nM	91%
